Measured values taken from paper doi:10.1101/2024.03.13.584854 (bioRxiv, 2024).

T1: Saccharomyces cerevisiae Snf7 mutant (R52E) (Saccharomyces cerevisiae, UniProt P39929 1-240, R52E)
T1 sequence (looked up): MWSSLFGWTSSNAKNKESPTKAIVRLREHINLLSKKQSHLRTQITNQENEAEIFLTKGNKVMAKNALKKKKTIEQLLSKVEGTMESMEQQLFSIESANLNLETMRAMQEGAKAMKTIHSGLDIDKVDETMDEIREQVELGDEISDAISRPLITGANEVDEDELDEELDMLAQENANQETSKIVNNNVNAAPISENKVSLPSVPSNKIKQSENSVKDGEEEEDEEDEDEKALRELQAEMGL

B1: Saccharomyces cerevisiae Vps24 (natural protein, UniProt P36095 1-224, looked up)
chain: MDYIKKAIWGPDPKEQQRRIRSVLRKNGRNIEKSLRELTVLQNKTQQLIKKSAKKNDVRTVRLYAKELYQINKQYDRMYTSRAQLDSVRMKIDEAIRMNTLSNQMADSAGLMREVNSLVRLPQLRNTMIELEKELMKSGIISEMVDDTMESVGDVGEEMDEAVDEEVNKIVEQYTNEKFKNVDQVPTVELAANEEEQEIPDEKVDEEADRMVNEMRERLRALQN
B2: Saccharomyces cerevisiae Vps2 (natural protein, UniProt P36108 1-232, looked up)
chain: MSLFEWVFGKNVTPQERLKKNQRALERTQRELEREKRKLELQDKKLVSEIKKSAKNGQVAAAKVQAKDLVRTRNYIQKFDNMKAQLQAISLRIQAVRSSDQMTRSMSEATGLLAGMNRTMNLPQLQRISMEFEKQSDLMGQRQEFMDEAIDNVMGDEVDEDEEADEIVNKVLDEIGVDLNSQLQSTPQNLVSNAPIAETAMGIPEPIGAGSEFHGNPDDDLQARLNTLKKQT

Target: T1, Saccharomyces cerevisiae Snf7 mutant …
Test: co-sedimentation

| Binder | binding result |
| --- | --- |
| B1 | binds |
| B2 | binds |
